Measured values taken from paper PMC11082194, “A common polymorphism in the Intelectin-1 gene influences mucus plugging in severe asthma” (Nature Communications, 2024).
Blank lines part the entries; values can stand above or below the molecule they belong to.

Columns and labels:
[1] = molecular target: purified human airway mucins; assay: ELISA; purified mucins coated on NUNC Maxisorp plate overnight at 4 °C, 20 μg/mL, carbonate-bicarbonate buffer pH 9.6; FLAG-ITLN-1 10 μg/mL for 2 hours in binding buffer B (TBS, 3 mM CaCl3, 1% BSA, 0.05% Tween-20, 50 mM EDTA); anti-FLAG HRP, absorbance 450 nm; also with galactose 100 mM, heparin 150 μg/mL or dextran sulfate 150 μg/mL
[2] = molecular target: T1, FLAG-tagged recombinant ITLN-1 (human, UniProt Q8WWA0 19-298); assay: ELISA; C-terminal recombinant peptide coated on NUNC Maxisorp plate overnight at 4 °C, 20 μg/mL, carbonate-bicarbonate buffer pH 9.6; FLAG-ITLN-1 10 μg/mL for 2 hours in binding buffer A (TBS, 3 mM CaCl3, 1% BSA, 0.05% Tween-20); anti-FLAG HRP, absorbance 450 nm; also with heparin 150 μg/mL; conditions: both partners purified
T1 construct: intelectin-1 (ITLN-1), human, recombinant; also called intelectin-1; recombinant human ITLN-1 protein; source: bought: Sigma, SRP8047

percent decrease of binding with dextran sulfate (150 μg/mL) [1]: 74% | percent decrease of binding with heparin (150 μg/mL) [1]: 51.9%
Molecule: FLAG-tagged recombinant ITLN-1 (from UniProt Q8WWA0 19-298) (natural protein)

binding result [2]: binds
B1: MUC5AC C-terminal recombinant peptide (AA5568-AA5654) (domain or fragment, human, UniProt P98088 5568-5654, looked up)
chain: YSLEGNTVEHRCQCCQELRTSLRNVTLHCTDGSSRAFSYTEVEECGCMGRRCPAPGDTQHSEEAEPEPSQEAESGSWERGVPVSPMH
notes: MUC5AC mucin, human, C-terminal recombinant peptide, residues 5568-5654; also called C-terminal MUC5AC; C-terminal peptide of MUC5AC; source: bought: Mybiosource, #MBS2009104
